According to the supplement of paper PMC9170038:

These sequences were tested on K4 kissing-loop RNA reporter (assay: apparent KD of K4 kissing-loop reporter; higher = weaker reporter binding). Settings: Eterna round: R107; input ligand: theophylline 20 uM.
Description: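 RNA-MaP round R107: designed RNA switches with theophylline, tryptophan, arginine or FMN aptamers are transcribed on-chip within common flanks. They are titrated with a labelled K4 kissing-loop RNA reporter in RNA-MaP buffer (100 mM Tris pH 7.5, 80 mM KCl, 4 mM MgCl2), without ligand or with the indicated ligand. Median apparent KD per design.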
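Further: bound reporter read as fluorescence of individual clusters on recovered sequencing chips by microscopy, with normalized cluster intensities fitted with a binding model.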

| Sequence | apparent KD of K4 kissing-loop reporter |
| --- | --- |
| UGUCAUUGGUCGGCCGCCACUUUGUAUGGAGUGAUGUUUUGUAGAUUGUGUUGAAAGGUGUGGUGAAGGACCGGGACCGAUGACU [FiskerMod 24 - Jieux - Same State - Tryptophan B] | 841 nM |
| UGUACCGAGUCAGGAUAUCAUAAUAAAUGCAGUGAUGUUGCAAUAACCAGUACAAAAGUGCUGGAUUGAGAAGGGACUUGGUACU [FmnBS 5 #SwitchBubble #StaticStem] | 119 nM |
| AGAGUACGAAAGUACUCCUCUACACACUGACGAGGACCGGUACGGCCGCCACUCGAGUUGAGUGAUGUUCGAUAGUGUGUAGAGA [Omei KL Tryp A SS C v3] | 312 nM |
| GCAGCUCGGGAGUGAUGUUCUCGUAGAGGAAAGGAUAUGUACUUAGACAGAAGGUUCGCAAUUUGCGGUCUUAAGAUAGAAUAAC [theeternabot_sameState_KL_FMN_A_40] | 224 nM |
| CACCCAGUCCUCGAUACCAGACUGGCACGUCAAAAGGUCCAGUGAUGUUGAGCCUAACAAGUCCCUUGGCAGCGACCAGUGUAUU [theeternabot_exclusion_KL_Theo_B_30] | 619 nM |
| AGACUACUGAUAGGAUAUAACAUACUACCUCGUAUACCAAAGGUAUACGAGGCCCUUCUAGUGAUGUUAGAAGGGUCGGUAGUCA [Omei KL FMN B Exc B v5] | 81.2 nM |
| CUCGAGUGAUGUUCGACGCGUCCGUACGAUACCAGCGUAGACCGUCGCCCUUGGCAGCGUGAUGCAGCCCGAAAGUCCGGUUCCU [theeternabot_sameState_KL_Theo_A_26] | 1120 nM |
| AAUAUCUAGUAUAUUUUUAAUAAAACAGAUACCAGUGAUAAUAGACACCCUUGGCAGCUGGUCGAGUGAUGUUCGUUUAUUUUAA [JR_SSTheophyA_Sub005] | 168 nM |
| AAUCGCGAGUCAGAUACCAGUUGGCUCGAGAGUCAGUGAUGUUGAUGUAAAUCUUAGGCGAACCCUUGGCAGCUGUCACCAGUCC [theeternabot_sameState_KL_Theo_B_27] | 346 nM |
| GGAGUUACCUGGGAUACCAGUCGGAGUCCCAGAGCACAGAGUGAUGUUCUGGGAUGUUUCGGCCCUUGGCAGCUCUGGGACUCCC [#2 Exclusion - Theophylline B Attempt #13 (HarryS)] | 402 nM |
| AUGCAUGAAAGUGAUGUUUUCAGUAAUGGAAAGGAUAUGCGCUGGUGCAGAAGGUUCUAAAGUGCAUCCAACAACUGGGUAGGCC [theeternabot_sameState_KL_FMN_A_36] | 273 nM |

Same assay, conditions: Eterna round: R107; input ligand: tryptophan 2.4 mM

| Sequence | apparent KD of K4 kissing-loop reporter |
| --- | --- |
| GCAGGAUGAGGAGGAGGAUGAAUUACUGAAGGAGCGCAUAUUUUUGCAGGUAGGUCGCGGUAAAGAAGUAUAGUGAUGUUAUAUA [SSArgA.K] | 456 nM |
| UGUGUACCGGGAAGGAGCGUGAAUGAUAAUGGAUAUAGUGAUGUUAUAUAUACGAACGAAUCGCAGGUAGGUCGCCCGGAUCCCU [SSArgB.X] | 576 nM |
| GCAGUGAUGUUGCGGAUGUACAGUGGCGUGCGAGGACCGGUACGGCCGCCACUCGUACAGACCAAGCUAAUACAUCGAUAGGUGA [whbob_SS_Tryp_A_m3] | 218 nM |
| AGAUGGCAGUGAUGUUGCUGUUGGAGGGAUAAGGAUAUUGGCUAAACAAGAAGGUAUCGGCGGCAUUGAGGAAUGGGAGGCGCCU [theeternabot_exclusion_KL_FMN_A_7] | 405 nM |
| CGACGGAGUGAUGUUUCGUGGUAUGCUGAUACCAGAUGAAACAGCGUCCCUUGGCAGCAGCAUACGCCAAGGAUAAUAUCCUAGU [Theo B SS t6] | 604 nM |
| GGGAGGAGUGGUGUUGAUUAGGGAGCGGAAGGAGCGCCGAGGAAGGCAGGUAGGUCGCCGGAUUAUAGUGAUGUUAUGAAGAGGG [ExArg.J] | 577 nM |
| UAUUCUAAUGCGGCCGCCACUGGAAGUGAUGUUUCCUCUGGCUAUCAUUUCGGACGGUAUUGUCCCAGGACCGGGCAUCCCUCUC [theeternabot_exclusion_KL_Trp_B_4] | 103 nM |
| GGAUGGUAGGCGGCCGCCACUAAAACUGAACACAUACAAGCCAGUGAUGUUGGUAUGAUGAAGUAUAGGACCGGGCCUAGAUAGA [Exclusion - Tryptophan B (Freestyle 3)] | 469 nM |
| GGCACGGUGGCGCGACUGCCGUGCGCUUGGGAGGAUAUGUUUCGUGACAGAAGGCCCAGUGAUGUUGGGUCUGUUCAAAAGGACU [Gegearer] | 112 nM |
| UAUAUAGUGACGGCCGCCACUAUAGUGAUGUUAUUGUUAGAGUGAUGUUUUGUUGUUUAAUUUUGUAGGACCGGGUUAUAUGUUA [tbbtmullin] | 446 nM |
| UCGGACCCUGGAGGAUAUGAGUCGAGUGAUGUUCGGCGGUCCAUGCCGAUGCGGCGUUAUGCCCUUUUAGAAGGCCAGGGUCCGA [#2 Exclusion - FMN B Attempt #10 (HarryS)] | 264 nM |
| AUUAAUUUCAGAGGAUAUCGUUAUUUUUUUAAGUAUAAUCUAUUUUGCAGUGAUGUUGCUAUUAAUCGAGAAGGCUGAUUUAUAA [JR_SSFMNB_Sub020] | 72.2 nM |
| AGUACGGACACGGCCGCCACUCAGAAGAAGACAGUAGUGAUGUUACUGAUGGUGAGAAUAAUAAAGAGGACCGGGUGUCGUGCAA [#05 K4 Tryptophan B Same State] | 171 nM |
| GUUACGCAUGGAAGGAGCGCGAAAAUUUAUAGUGAGUGAUGUUCACAAAUAAGAAUAAUAACGCAGGUAGGUCGCCAUGUGUAAC [Ex Arginine B K4 5] | 95.2 nM |
| UGAUUGGCGAAAGUAGUGAUGUUACGAAUAUAGGAUAUUAGAGGAAUAAGAAGGAUAAGGGAGAAAUAGGUAAAUUGUUGGUUGG [whbob_SS_FMNA__2th170] | 100 nM |
| AUUCUAUGGAGUGAUGUUCCUGUGAUGUCACGAGGACCGGUACGGCCGCCACUCGAUGUAUUGGUUUUUGAAAGAAACAACUGCA [Same State-Tryptophan A] | 279 nM |
| AAGUCUCGUUAAUUCGAGGUUGCGAUCGAUACCAGUAGCGAGAGGUACCCUUGGCAGCGAAGUGAGUGAUGUUCAUGAAAGAAGA [KL-XTheoA13] | 68.6 nM |
| AGGAUCGAAGAUCCAGCAGUCAAGCAAUACCGAGGACCGGUACGGCCGCCACUCGGAGUGAUGUUCCGAAGACUGCAAAAUAAAA [#SwitchBubble 8] | 86.2 nM |
| GCGGCCCAGCCGGAUACCAGUGAGCCGCUGGGAACCGCGGGCCCAGAGUGAUGUUCGGGACACCCUUGGCAGCCGCCUGGGUCGC [#2 Same State - Theophylline B Attempt #20 (HarryS)] | 491 nM |
| AAUAAAAUCACGGCCGCCACUGAUGCUAAUAUUGGCAGUGAUGUUGCUAUGUAUAUUUUAUUUGACAGGACCGGGUGAAUAUUUA [#24 K4 Tryptophan B Exclusion] | 137 nM |
| GUAGCACAGUCGGCCGCCACUGUCGGUUCUCCAGUGAUGUUGGAGUUAGUUCGUCGCAGUUCAAACAGGACCGGGACCAUUCCUU [theeternabot_exclusion_KL_Trp_B_26] | 121 nM |

| Sequence | apparent KD of K4 kissing-loop reporter |
| --- | --- |
| ACGUGCACCAGUGAUGUUGGAAAAUAUGAAGGAGCGGGAGAAAACCCAGGUAGGUCGCAUAAUUGCACGAGCCACGAAAGUGGCA [#15 K4 Arginine A Same State] | 70.8 nM |
| UGUGUUUACCUGACUCAGUGAUGUUGAGAAGGAGCGUGCGAACGCACAGGUAGGUCGCUCAACCUAAAUUCAGGUGAGCACUAAA | 398 nM |
| AAAUAUUCGAGUGAUGUUCGAUAAAUAUCAGAGGAUAUGCUUAAAAGCAGAAGGCUGUAUUUCUAUUUGUUAUGUAAUUUUAUAA [JR_SSFMNA_Sub021] | 91.4 nM |
| AAGCAGUCACUCGACGCCAUCGAAGAUGGGCGAGGACCGGUACGGCCGCCACUCGGAGUGAUGUUCUGAUGACUGCAAAAUAAAA [MatMod 8 - Jieux - Exclusion - Tryptophan A] | 94.3 nM |
| AAGGUCACUGCUACAGUGAUGUUGUGGGAGCAGGAUAUGCAGAAAUGCAGAAGGGCUCGCUCCAGGUGACCGAAUGAAACAUUCA [whbob_SS_FMNA__2th175] | 1000 nM |
| AUGCAGUGAUGUUGCUUUGUAUAAACAGAUACCAGUGAAUUUUAACACCCUUGGCAGCUGAUAGAUUCUUAAUUCUAUUAUAUAA [JR_SSTheophyA_Sub020] | 140 nM |
| UUAUAUACGAGUGAUGUUCGUUAUUUAUCAGAGGAUAUGCUUAAAUGCAGAAGGCUGUUUUUCUAUUUGAUAUUAAAUUUUAUAA [JR_Nu3_ExcFMNA_Sub027] | 58.1 nM |
| UUGGUCUUUUAAGGAUAUCAUACUCCACUGAGCGAGUGAUGUUCGCUCCUGUUACGCCUGGGACCGUGAGAAGGUAAAGUACCGU [theeternabot_sameState_KL_FMN_B_5] | 137 nM |
| UCCUAGGACUUCAGGCGAAAGCCCUGCGAAGGAGCGUGCGAAAGCACAGGUAGGUCGCGCAGUGAUGUUGCACCUAGGUAAUAAA [#SwitchBubble 20 #K4Late] | 124 nM |
| GUGCAGUGAUGUUGCACGAGGAAAGACGAUACCAGCCGUAAAUAAGGCCCUUGGCAGCGUAGGCUAGCAUAAAGCAUGCUAGUCC [Edeson] | 78 nM |
| UGUCAUUGGUCGGCCGCCACUUUGUAUGGAGUGAUGUUUUGUAGAUUGUGUUGAAAGGUGUGGUGAAGGACCGGGACCGAUGACU [FiskerMod 24 - Jieux - Same State - Tryptophan B] | 749 nM |
| UGUACCGAGUCAGGAUAUCAUAAUAAAUGCAGUGAUGUUGCAAUAACCAGUACAAAAGUGCUGGAUUGAGAAGGGACUUGGUACU [FmnBS 5 #SwitchBubble #StaticStem] | 112 nM |
| AGAGUACGAAAGUACUCCUCUACACACUGACGAGGACCGGUACGGCCGCCACUCGAGUUGAGUGAUGUUCGAUAGUGUGUAGAGA [Omei KL Tryp A SS C v3] | 1120 nM |
| GCAGCUCGGGAGUGAUGUUCUCGUAGAGGAAAGGAUAUGUACUUAGACAGAAGGUUCGCAAUUUGCGGUCUUAAGAUAGAAUAAC [theeternabot_sameState_KL_FMN_A_40] | 152 nM |
| CACCCAGUCCUCGAUACCAGACUGGCACGUCAAAAGGUCCAGUGAUGUUGAGCCUAACAAGUCCCUUGGCAGCGACCAGUGUAUU [theeternabot_exclusion_KL_Theo_B_30] | 623 nM |
| AGACUACUGAUAGGAUAUAACAUACUACCUCGUAUACCAAAGGUAUACGAGGCCCUUCUAGUGAUGUUAGAAGGGUCGGUAGUCA [Omei KL FMN B Exc B v5] | 83.2 nM |
| CUCGAGUGAUGUUCGACGCGUCCGUACGAUACCAGCGUAGACCGUCGCCCUUGGCAGCGUGAUGCAGCCCGAAAGUCCGGUUCCU [theeternabot_sameState_KL_Theo_A_26] | 1070 nM |
| AAUAUCUAGUAUAUUUUUAAUAAAACAGAUACCAGUGAUAAUAGACACCCUUGGCAGCUGGUCGAGUGAUGUUCGUUUAUUUUAA [JR_SSTheophyA_Sub005] | 60 nM |
| AAUCGCGAGUCAGAUACCAGUUGGCUCGAGAGUCAGUGAUGUUGAUGUAAAUCUUAGGCGAACCCUUGGCAGCUGUCACCAGUCC [theeternabot_sameState_KL_Theo_B_27] | 325 nM |
| GGAGUUACCUGGGAUACCAGUCGGAGUCCCAGAGCACAGAGUGAUGUUCUGGGAUGUUUCGGCCCUUGGCAGCUCUGGGACUCCC [#2 Exclusion - Theophylline B Attempt #13 (HarryS)] | 222 nM |
| AUGCAUGAAAGUGAUGUUUUCAGUAAUGGAAAGGAUAUGCGCUGGUGCAGAAGGUUCUAAAGUGCAUCCAACAACUGGGUAGGCC [theeternabot_sameState_KL_FMN_A_36] | 310 nM |
